Experimental data as given in PMC2783852 (Archives of biochemistry and biophysics, 2009).

Molecular target: the molecule itself
Experiment: SEC

B1: recombinant human apomanganese superoxide dismutase (enzyme, UniProt P04179 25-222, looked up)
chain: KHSLPDLPYDYGALEPHINAQIMQLHHSKHHAAYVNNLNVTEEKYQEALAKGDVTAQIALQPALKFNGGGHINHSIFWTNLSPNGGGEPKGELLEAIKRDFGSFDKFKEKLTAASVGVQGSGWGWLGFNKERGHLQIAACPNQDPLQGTTGLIPLLGIDVWEHAYYLQYKNVRPDYLKAIWNVINWENVTERYMACKK
  stoichiometry N: 4
